Target: oncofetal fibronectin (human) (UniProt P02751)
Assay: lateral flow sandwich; FDC-6 blue latex conjugate and immobilised goat anti-fibronectin; TLiIQ reflectance reader
Settings: scale: reflectance signal

Sequence of UniProt P02751 (P02751 32-2477): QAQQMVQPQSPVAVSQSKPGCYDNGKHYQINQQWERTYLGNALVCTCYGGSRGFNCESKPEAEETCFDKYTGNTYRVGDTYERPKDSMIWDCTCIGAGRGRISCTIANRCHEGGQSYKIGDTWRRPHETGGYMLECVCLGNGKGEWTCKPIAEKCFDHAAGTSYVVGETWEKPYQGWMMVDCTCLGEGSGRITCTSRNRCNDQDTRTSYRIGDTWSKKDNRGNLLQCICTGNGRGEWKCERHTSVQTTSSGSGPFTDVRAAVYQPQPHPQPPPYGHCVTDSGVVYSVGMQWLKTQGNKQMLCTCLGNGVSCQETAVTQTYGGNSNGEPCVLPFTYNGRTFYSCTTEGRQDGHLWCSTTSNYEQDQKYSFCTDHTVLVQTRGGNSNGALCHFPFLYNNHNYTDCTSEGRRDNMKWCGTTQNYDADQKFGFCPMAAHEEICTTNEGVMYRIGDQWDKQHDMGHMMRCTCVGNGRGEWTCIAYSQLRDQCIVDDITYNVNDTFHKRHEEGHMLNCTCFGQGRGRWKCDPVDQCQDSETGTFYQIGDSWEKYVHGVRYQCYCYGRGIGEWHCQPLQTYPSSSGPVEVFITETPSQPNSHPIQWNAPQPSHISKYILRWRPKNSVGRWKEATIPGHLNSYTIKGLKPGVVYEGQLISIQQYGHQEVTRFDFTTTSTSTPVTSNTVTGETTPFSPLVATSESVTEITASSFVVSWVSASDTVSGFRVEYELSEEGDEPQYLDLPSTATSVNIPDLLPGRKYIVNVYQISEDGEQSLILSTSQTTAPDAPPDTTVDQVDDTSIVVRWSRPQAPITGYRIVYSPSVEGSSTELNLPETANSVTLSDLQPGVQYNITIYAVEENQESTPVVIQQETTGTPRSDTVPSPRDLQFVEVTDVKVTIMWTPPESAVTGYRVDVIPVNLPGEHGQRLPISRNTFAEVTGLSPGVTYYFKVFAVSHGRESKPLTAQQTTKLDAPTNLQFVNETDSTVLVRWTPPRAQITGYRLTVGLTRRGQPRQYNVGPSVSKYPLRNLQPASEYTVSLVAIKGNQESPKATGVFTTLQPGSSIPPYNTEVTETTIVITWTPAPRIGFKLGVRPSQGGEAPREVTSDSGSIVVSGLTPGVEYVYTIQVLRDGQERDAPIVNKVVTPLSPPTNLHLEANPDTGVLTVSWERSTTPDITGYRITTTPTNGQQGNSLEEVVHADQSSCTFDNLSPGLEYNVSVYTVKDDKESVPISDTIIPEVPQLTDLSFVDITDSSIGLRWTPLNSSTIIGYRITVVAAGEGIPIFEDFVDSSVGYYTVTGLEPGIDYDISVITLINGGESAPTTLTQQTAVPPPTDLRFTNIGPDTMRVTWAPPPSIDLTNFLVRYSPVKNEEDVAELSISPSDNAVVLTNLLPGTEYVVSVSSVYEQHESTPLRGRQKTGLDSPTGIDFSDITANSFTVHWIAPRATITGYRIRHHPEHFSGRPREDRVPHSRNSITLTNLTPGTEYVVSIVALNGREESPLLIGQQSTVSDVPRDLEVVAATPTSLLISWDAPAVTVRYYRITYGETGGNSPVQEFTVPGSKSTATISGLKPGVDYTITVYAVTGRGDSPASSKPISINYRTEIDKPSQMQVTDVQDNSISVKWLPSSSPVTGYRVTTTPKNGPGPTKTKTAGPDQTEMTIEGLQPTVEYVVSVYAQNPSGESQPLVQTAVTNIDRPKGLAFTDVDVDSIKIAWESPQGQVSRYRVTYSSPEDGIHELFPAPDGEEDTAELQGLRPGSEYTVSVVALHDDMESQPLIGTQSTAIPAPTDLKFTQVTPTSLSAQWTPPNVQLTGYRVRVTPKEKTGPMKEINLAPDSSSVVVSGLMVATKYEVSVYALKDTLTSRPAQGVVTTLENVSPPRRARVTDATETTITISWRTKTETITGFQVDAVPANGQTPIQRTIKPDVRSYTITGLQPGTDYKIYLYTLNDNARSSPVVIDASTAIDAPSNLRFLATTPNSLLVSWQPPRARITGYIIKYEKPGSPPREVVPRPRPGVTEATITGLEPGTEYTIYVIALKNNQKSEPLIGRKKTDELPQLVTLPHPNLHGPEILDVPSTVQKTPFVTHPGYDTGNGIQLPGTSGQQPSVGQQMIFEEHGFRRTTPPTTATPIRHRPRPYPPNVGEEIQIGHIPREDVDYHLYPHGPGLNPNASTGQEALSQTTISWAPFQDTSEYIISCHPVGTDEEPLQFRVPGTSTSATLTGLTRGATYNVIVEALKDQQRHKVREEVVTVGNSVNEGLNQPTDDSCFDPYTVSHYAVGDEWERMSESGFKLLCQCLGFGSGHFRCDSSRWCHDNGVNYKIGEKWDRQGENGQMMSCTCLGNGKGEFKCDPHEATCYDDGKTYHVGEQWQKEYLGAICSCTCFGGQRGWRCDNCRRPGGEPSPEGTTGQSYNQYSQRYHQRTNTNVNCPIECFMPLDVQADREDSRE

Substance: monoclonal antibody FDC-6, produced by the hybridoma ATCC HB 9018
- reflectance signal: 0.315

Reference: patent US20060024723A1
